We go through one molecule from article PMC3913127 (Nature immunology, 2012).

For this experiment, the target named is …-loaded H-2D^d (mouse | ). The experiment can be described thus: SPR.

B1: Ly49A EC (entire extracellular domain of Ly49A, residues 67-262) (receptor, mouse (C57BL/6), UniProt P20937 67-262, looked up)
chain: KIFQYDQQKNCEEFLNHHNNCSNMQSDINLKDEMLKNKSIECDLLESLNRDQNRLYNKTKTVLDSLQHTGRGDKVYWFCYGMKCYYFVMDRKTWSGCKQACQSSSLSLLKIDDEDELKFLQLVVPSDSCWVGLSYDNKKKDWAWIDNRPSKLALNTGKYNIRDGGCMLLSKTRLDNGNCDQVFICICGKRLDKFPH
modifications: biotin (biotinylated Ly49A EC, captured on streptavidin)
Regarding B1, the Kd was determined as 2050 ± 70 nM, the off-rate constant (koff) amounted to 0.00338 s⁻¹ and the kon was found to be 1650 M⁻¹ s⁻¹.
